Test results taken from patent publication US20220049021A1 (Gilead, published 2022).
Like-named read-outs stand apart in the source and are kept apart here.

Tests used:
[1] = molecular target: T1, human FLT3 on AML5 cells (human, UniProt P36888 27-993); test: cell-based or functional assay
T1 sequence (looked up): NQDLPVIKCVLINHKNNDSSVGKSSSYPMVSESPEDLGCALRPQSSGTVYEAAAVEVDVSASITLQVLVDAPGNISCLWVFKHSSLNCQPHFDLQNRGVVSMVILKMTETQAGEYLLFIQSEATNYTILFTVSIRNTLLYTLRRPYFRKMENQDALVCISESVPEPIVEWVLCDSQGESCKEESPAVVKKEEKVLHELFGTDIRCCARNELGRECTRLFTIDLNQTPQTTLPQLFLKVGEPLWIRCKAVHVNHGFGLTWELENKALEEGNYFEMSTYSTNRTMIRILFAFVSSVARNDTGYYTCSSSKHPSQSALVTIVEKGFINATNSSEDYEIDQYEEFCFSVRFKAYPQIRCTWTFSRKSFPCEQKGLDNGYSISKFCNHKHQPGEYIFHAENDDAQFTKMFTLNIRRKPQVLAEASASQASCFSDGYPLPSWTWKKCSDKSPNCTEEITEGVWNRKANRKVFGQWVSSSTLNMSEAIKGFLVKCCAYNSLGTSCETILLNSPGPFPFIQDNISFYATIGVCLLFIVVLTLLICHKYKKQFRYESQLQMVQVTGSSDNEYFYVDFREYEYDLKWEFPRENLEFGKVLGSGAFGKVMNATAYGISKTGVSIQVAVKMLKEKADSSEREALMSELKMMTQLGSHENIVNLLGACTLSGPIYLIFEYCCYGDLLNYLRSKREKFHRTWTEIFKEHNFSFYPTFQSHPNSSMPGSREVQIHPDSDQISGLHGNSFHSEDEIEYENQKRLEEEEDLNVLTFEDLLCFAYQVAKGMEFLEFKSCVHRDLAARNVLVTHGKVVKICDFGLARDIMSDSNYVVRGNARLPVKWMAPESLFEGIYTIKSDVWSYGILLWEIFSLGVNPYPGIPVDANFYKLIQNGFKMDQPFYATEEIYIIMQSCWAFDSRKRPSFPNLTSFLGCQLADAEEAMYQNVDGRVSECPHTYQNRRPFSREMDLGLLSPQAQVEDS

[2] = molecular target: T2, recombinant human C1q protein (Fitzgerald) (human, UniProt P02745 23-245; P02746 28-253; P02747 29-245, limits assumed); test: ELISA; test protein immobilised in serial dilution, recombinant human C1q added, anti-C1q-HRP
T2 construct: also called human recombinant complement protein, C1q

[3] = molecular target: T1, human FLT3 on AML5 cells; test: cell-based or functional assay; remark: listed apart in the source
[4] = molecular target: T2, recombinant human C1q protein …; test: ELISA; test protein immobilised in serial dilution, recombinant human C1q added, anti-C1q-HRP; remark: listed apart in the source
[5] = molecular target: T1, human FLT3 on AML5 cells; test: cell-based or functional assay; remark: listed apart in the source
[6] = molecular target: T1, human FLT3 on AML5 cells; test: cell-based or functional assay; remark: listed apart in the source
[7] = molecular target: T1, human FLT3 on AML5 cells; test: cell-based or functional assay; remark: listed apart in the source

T2 sequence (P02745 23-245 limits assumed, chain 1 of 3): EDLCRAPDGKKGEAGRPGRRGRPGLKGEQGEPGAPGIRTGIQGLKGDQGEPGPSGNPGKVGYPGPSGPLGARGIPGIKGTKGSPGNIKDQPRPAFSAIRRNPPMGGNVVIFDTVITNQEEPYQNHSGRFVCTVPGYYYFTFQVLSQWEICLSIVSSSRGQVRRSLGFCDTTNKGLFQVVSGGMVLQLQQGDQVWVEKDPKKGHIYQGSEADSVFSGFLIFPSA
T2 sequence (P02746 28-253 limits assumed, chain 2 of 3): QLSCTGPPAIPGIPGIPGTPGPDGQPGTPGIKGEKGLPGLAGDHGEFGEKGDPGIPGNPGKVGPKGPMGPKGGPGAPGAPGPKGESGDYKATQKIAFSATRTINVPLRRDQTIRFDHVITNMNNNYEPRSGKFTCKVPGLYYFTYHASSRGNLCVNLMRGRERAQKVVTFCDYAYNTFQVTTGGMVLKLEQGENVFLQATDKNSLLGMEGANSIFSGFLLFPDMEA
T2 sequence (P02747 29-245 limits assumed, chain 3 of 3): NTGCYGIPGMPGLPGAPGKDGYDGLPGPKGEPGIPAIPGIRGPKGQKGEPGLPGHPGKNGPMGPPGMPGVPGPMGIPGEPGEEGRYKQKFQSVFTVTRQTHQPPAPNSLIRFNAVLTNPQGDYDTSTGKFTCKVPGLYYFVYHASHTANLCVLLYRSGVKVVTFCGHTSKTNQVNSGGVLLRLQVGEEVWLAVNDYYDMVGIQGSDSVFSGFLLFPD

B1: human FLT3-ligand (Δ5 amino acid) human IgG4 (S228P/F234A/L235A/M252Y/S254T/T256E) fusion protein (SEQ ID NO:14) (Fc fusion)
chain: TQDCSFQHSPISSDFAVKIRELSDYLLQDYPVTVASNLQDEELCGGLWRLVLAQRWMERLKTVAGSKMQGLLERVNTEIHFVTKCAFQPPPSCLRFVQTNISRLLQETSEQLVALKPWITRQNFSRCLELQCQPDSSTLPPPWSPRPLEATAESKYGPPCPPCPAPEAAGGPSVFLFPPKPKDTLYITREPEVTCVVVDVSQEDPEVQFNWYVDGVEVHNAKTKPREEQFNSTYRVVSVLTVLHQDWLNGKEYKCKVSNKGLPSSIEKTISKAKGQPREPQVYTLPPSQEEMTKNQVSLTCLVKGFYPSDIAVEWESNGQPENNYKTTPPVLDSDGSFFLYSRLTVDKSRWQEGNVFSCSVMHEALHNHYTQKSLSLSLGK
notes: also called FLT3L ECD (Δ C-term 5aa (PTAPQ))-hG4 (S228P/F234A/L235A/M252Y/S254T/T256E)
[1]
  EC50 (nM), AML5 Proliferation Assay: 0.046 nM
[2]
  binding result: no binding (tested: 94 nM (top of the titration))

B2: human FLT3-ligand (Δ10 amino acid) human hingeless IgG1 fusion protein (SEQ ID NO:7) (Fc fusion)
chain: TQDCSFQHSPISSDFAVKIRELSDYLLQDYPVTVASNLQDEELCGGLWRLVLAQRWMERLKTVAGSKMQGLLERVNTEIHFVTKCAFQPPPSCLRFVQTNISRLLQETSEQLVALKPWITRQNFSRCLELQCQPDSSTLPPPWSPRPGGPSVFLFPPKPKDTLMISRTPEVTCVVVDVSHEDPEVKFNWYVDGVEVHNAKTKPREEQYNSTYRVVSVLTVLHQDWLNGKEYKCKVSNKALPAPIEKTISKAKGQPREPQVYTLPPSREEMTKNQVSLTCLVKGFYPSDIAVEWESNGQPENNYKTTPPVLDSDGSFFLYSKLTVDKSRWQQGNVFSCSVMHEALHNHYTQKSLSLSPGK
[3]
  EC50 (nM), AML5 Proliferation Assay: 0.071 nM
[4]
  binding result: no binding (tested: 94 nM (top of the titration))

B3: human FLT3-ligand human hingeless IgG1 fusion protein (SEQ ID NO:1) (Fc fusion)
chain: TQDCSFQHSPISSDFAVKIRELSDYLLQDYPVTVASNLQDEELCGGLWRLVLAQRWMERLKTVAGSKMQGLLERVNTEIHFVTKCAFQPPPSCLRFVQTNISRLLQETSEQLVALKPWITRQNFSRCLELQCQPDSSTLPPPWSPRPLEATAPTAPQGGPSVFLFPPKPKDTLMISRTPEVTCVVVDVSHEDPEVKFNWYVDGVEVHNAKTKPREEQYNSTYRVVSVLTVLHQDWLNGKEYKCKVSNKALPAPIEKTISKAKGQPREPQVYTLPPSREEMTKNQVSLTCLVKGFYPSDIAVEWESNGQPENNYKTTPPVLDSDGSFFLYSKLTVDKSRWQQGNVFSCSVMHEALHNHYTQKSLSLSPGK
notes: Made in Expi293 or ExpiCHO; also called FLT3L ECD-hingeless hG1; hFLT3L ECD
[5]
  EC50 (nM), Inducing Proliferation of AML5 Cells: 0.04 nM
[6]
  EC50 (nM), Inducing Proliferation of AML5 Cells: 0.034 nM
[7]
  EC50 (nM), Inducing Proliferation of AML5 Cells: 0.078 nM
[3]
  EC50 (nM), AML5 Proliferation Assay: 0.08 nM
[1]
  EC50 (nM), AML5 Proliferation Assay: 0.05 nM
[4]
  binding result: no binding (tested: 94 nM (top of the titration))

B4: human FLT3-ligand (S128A/S151A) human hingeless IgG1 fusion protein (SEQ ID NO:5) (Fc fusion)
chain: TQDCSFQHSPISSDFAVKIRELSDYLLQDYPVTVASNLQDEELCGGLWRLVLAQRWMERLKTVAGSKMQGLLERVNTEIHFVTKCAFQPPPSCLRFVQTNIARLLQETSEQLVALKPWITRQNFARCLELQCQPDSSTLPPPWSPRPLEATAPTAPQGGPSVFLFPPKPKDTLMISRTPEVTCVVVDVSHEDPEVKFNWYVDGVEVHNAKTKPREEQYNSTYRVVSVLTVLHQDWLNGKEYKCKVSNKALPAPIEKTISKAKGQPREPQVYTLPPSREEMTKNQVSLTCLVKGFYPSDIAVEWESNGQPENNYKTTPPVLDSDGSFFLYSKLTVDKSRWQQGNVFSCSVMHEALHNHYTQKSLSLSPGK
notes: also called Aglyco-FLT3L ECD (S128A/S151A) hingeless hG1
[3]
  EC50 (nM), AML5 Proliferation Assay: 0.078 nM
[4]
  binding result: no binding (tested: 94 nM (top of the titration))

B5: human FLT3-ligand human hingeless IgG1 (M252Y/S254T/T256E) fusion protein (SEQ ID NO:9) (Fc fusion)
chain: TQDCSFQHSPISSDFAVKIRELSDYLLQDYPVTVASNLQDEELCGGLWRLVLAQRWMERLKTVAGSKMQGLLERVNTEIHFVTKCAFQPPPSCLRFVQTNISRLLQETSEQLVALKPWITRQNFSRCLELQCQPDSSTLPPPWSPRPLEATAPTAPQGGPSVFLFPPKPKDTLYITREPEVTCVVVDVSHEDPEVKFNWYVDGVEVHNAKTKPREEQYNSTYRVVSVLTVLHQDWLNGKEYKCKVSNKALPAPIEKTISKAKGQPREPQVYTLPPSREEMTKNQVSLTCLVKGFYPSDIAVEWESNGQPENNYKTTPPVLDSDGSFFLYSKLTVDKSRWQQGNVFSCSVMHEALHNHYTQKSLSLSPGK
notes: also called FLT3L ECD-hingeless hG1 (M252Y/S254T/T256E)
[1]
  EC50 (nM), AML5 Proliferation Assay: 0.037 nM
[2]
  binding result: no binding (tested: 94 nM (top of the titration))

B6: human FLT3-ligand (Δ5 amino acid) human hingeless IgG1 fusion protein (SEQ ID NO:2) (Fc fusion)
chain: TQDCSFQHSPISSDFAVKIRELSDYLLQDYPVTVASNLQDEELCGGLWRLVLAQRWMERLKTVAGSKMQGLLERVNTEIHFVTKCAFQPPPSCLRFVQTNISRLLQETSEQLVALKPWITRQNFSRCLELQCQPDSSTLPPPWSPRPLEATAGGPSVFLFPPKPKDTLMISRTPEVTCVVVDVSHEDPEVKFNWYVDGVEVHNAKTKPREEQYNSTYRVVSVLTVLHQDWLNGKEYKCKVSNKALPAPIEKTISKAKGQPREPQVYTLPPSREEMTKNQVSLTCLVKGFYPSDIAVEWESNGQPENNYKTTPPVLDSDGSFFLYSKLTVDKSRWQQGNVFSCSVMHEALHNHYTQKSLSLSPGK
notes: also called FLT3L ECD (Δ C-term 5aa (PTAPQ))-hingeless hG1
[3]
  EC50 (nM), AML5 Proliferation Assay: 0.083 nM
[4]
  binding result: no binding (tested: 94 nM (top of the titration))
